Earlier results, collected in article PMC5013049.
pKd: −log10 of the molar value.

Experiments:
[1] = target: ExsD (Pseudomonas aeruginosa) (UniProt Q9I321); test: ITC
[2] = target: ExsE (Pseudomonas aeruginosa) (UniProt Q9I322); test: ITC
Chain of UniProt Q9I322 (Q9I322 whole entry): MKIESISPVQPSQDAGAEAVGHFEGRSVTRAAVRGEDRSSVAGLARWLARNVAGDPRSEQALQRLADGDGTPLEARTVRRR

Chain of UniProt Q9I321 (Q9I321 whole entry): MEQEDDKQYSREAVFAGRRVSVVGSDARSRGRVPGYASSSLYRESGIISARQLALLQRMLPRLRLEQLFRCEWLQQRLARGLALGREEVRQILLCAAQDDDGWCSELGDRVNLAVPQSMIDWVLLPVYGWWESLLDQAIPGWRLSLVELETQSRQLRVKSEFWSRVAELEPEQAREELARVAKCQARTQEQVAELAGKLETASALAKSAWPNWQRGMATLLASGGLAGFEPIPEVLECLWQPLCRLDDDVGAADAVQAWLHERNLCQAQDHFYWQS

Substance: ExsC (from UniProt P26995)
- pKd [1]: 7.74
- pKd [2]: 9.00
